B1: Spindle assembly abnormal protein 5 (Caenorhabditis elegans), Q20010 (parent)
chain: MNNYDDLPCSIYFKKPTVQEFVDQPRVFEDSEVPAFQEVLQLPQERTKPPVPSTQPIVAAVEVAKKKSCLSAPKPRKEPPSHPALRQKTVAFGKTVNVSQTVEGTSRNSKKVLASTMSAQNTTTTEEQAAENWRDAMKTELQTIRTEIQEETARRQEELNAQNLVKMQELMSNFFQKITIPKQQAIEPVEKDKENFHESPRQSRQQKPASKIASAREVIKRDGVIPPEALTIIEQRLRSDPMFRQQIDNVLADAECDANRAAYSPPPPMSEVRYGSGVNPALMRETLTVERSIRYDNGLASIDSRQWTNERRDNRAPDSYRTYEPDQPCHSLYQKGQSISYYPSEAAGKTTARNNRTGYYVEDSSDHEEDVVVNKRGQNYHEQAVPETPAERERRIREKYARRK
partner: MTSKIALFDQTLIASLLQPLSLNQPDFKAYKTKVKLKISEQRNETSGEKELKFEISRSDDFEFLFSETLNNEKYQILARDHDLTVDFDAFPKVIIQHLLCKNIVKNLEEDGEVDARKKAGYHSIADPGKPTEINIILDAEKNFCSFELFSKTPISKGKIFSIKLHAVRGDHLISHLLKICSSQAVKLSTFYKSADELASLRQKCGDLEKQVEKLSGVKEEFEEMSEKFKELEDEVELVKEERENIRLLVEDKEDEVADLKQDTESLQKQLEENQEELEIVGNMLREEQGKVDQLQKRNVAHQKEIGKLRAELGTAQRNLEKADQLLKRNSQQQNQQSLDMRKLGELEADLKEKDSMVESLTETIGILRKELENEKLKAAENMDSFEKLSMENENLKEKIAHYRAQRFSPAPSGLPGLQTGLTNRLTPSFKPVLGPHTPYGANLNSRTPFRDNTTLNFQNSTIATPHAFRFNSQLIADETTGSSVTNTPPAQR

The source of these data is IntAct's records for PubMed 23064147.

One experiment covers variants of B1. To be noted: with sas6_caeel sas-6, O62479.
For the variant R397C, the “effect of a mutation on the interaction” value was “decreasing interaction”.

In the next experiment the parent is B1. The conditions noted are these: with sas6_caeel sas-6, O62479. The source holds these as a separate data set.
For R397C, the “effect of a mutation on the interaction” value was “disrupting interaction”.

Variants of B1 are the subject of another experiment. To be noted: with sas6_caeel sas-6, O62479. This is another data set of the same source.
R403A: the “effect of a mutation on the interaction” value is given as “decreasing interaction”.

The next experiment covers variants of B1. To be noted: with sas6_caeel sas-6, O62479. The source holds these as a separate data set.
For the variant R403A, the “effect of a mutation on the interaction” value is recorded as “disrupting interaction”.

Another experiment covers variants of B1. The conditions noted are these: with sas6_caeel sas-6, O62479. The source holds these as a separate data set.
On to Y400A, for which the “effect of a mutation on the interaction” value was “decreasing interaction”.

A further experiment covers variants of B1. To be noted: with sas6_caeel sas-6, O62479. The source holds these as a separate data set.
Regarding Y400A, the “effect of a mutation on the interaction” value was “disrupting interaction”.

Variants of B1 are the subject of another experiment. The conditions noted are these: with sas6_caeel sas-6, O62479. This is another data set of the same source.
Take I396A: the “effect of a mutation on the interaction” value is given as “decreasing interaction”.

The next experiment covers variants of B1. The conditions noted are these: with sas6_caeel sas-6, O62479. The source holds these as a separate data set.
As for I396A, the “effect of a mutation on the interaction” value is reported as “disrupting interaction”.
